# From the Human Domainome abundance scans (Beltran et al. 2025)
# ± gives the uncertainty stated by the source.
# B1: POU domain, class 3, transcription factor 4, residues 280 to 335; numbered along this chain, P49335 (parent)
# chain: KKRTSIEVSVKGVLETHFLKCPKPAAQEISSLADSLQLEKEVVRVWFCNRRQKEKR
# Variants of: B1
# Test: abundance fitness (aPCA) (normalised: wild type 0, dead -1); higher = more abundant; growth selection in yeast, the domain comes from the species named
# Settings: Homo sapiens
row,Variant,abundance fitness
1,KKRTSIEVSVKSVLETHFLKCPKPAAQEISSLADSLQLEKEVVRVWFCNRRQKEKR [G12S],0.298 ± 0.2
2,KKRTSIEVSVKLVLETHFLKCPKPAAQEISSLADSLQLEKEVVRVWFCNRRQKEKR [G12L],0.004 ± 0.24
3,KKRTSIEVSVKGVLETHFLKCPKPAAQEISSLADSLQLEKEVVRAWFCNRRQKEKR [V45A],0.085 ± 0.12
4,KKRTSIEVSVKGVLETHFLKCPKPAAQEISSLADSLQLEKEVVRLWFCNRRQKEKR [V45L],0.052 ± 0.12
5,KKRTSIEVSVKGVLETHFLKCPKPAAQEISILADSLQLEKEVVRVWFCNRRQKEKR [S31I],0.004 ± 0.18
6,KKRTSIEVSVKGVLETHFLKCPKPAAQEISRLADSLQLEKEVVRVWFCNRRQKEKR [S31R],0.29 ± 0.13
7,KKRTSIEVSGKGVLETHFLKCPKPAAQEISSLADSLQLEKEVVRVWFCNRRQKEKR [V10G],-0.751 ± 0.21
8,KKRTSIEVSRKGVLETHFLKCPKPAAQEISSLADSLQLEKEVVRVWFCNRRQKEKR [V10R],-0.731 ± 0.24
9,KKRTSIEVSTKGVLETHFLKCPKPAAQEISSLADSLQLEKEVVRVWFCNRRQKEKR [V10T],-0.21 ± 0.3
10,EKRTSIEVSVKGVLETHFLKCPKPAAQEISSLADSLQLEKEVVRVWFCNRRQKEKR [K1E],-0.049 ± 0.3
11,KKRTSIEVSVKGVLETHFLKCPKHAAQEISSLADSLQLEKEVVRVWFCNRRQKEKR [P24H],-0.688 ± 0.47
12,KKRTSIEVSVHGVLETHFLKCPKPAAQEISSLADSLQLEKEVVRVWFCNRRQKEKR [K11H],-0.207 ± 0.49
13,KKRTSIEVSVKGVLETHFLKCPKPAAQEISSLADSLQLEKEVVRVWYCNRRQKEKR [F47Y],-0.534 ± 0.3
14,KKRTSIEVSVKGVLETHFLKCPKPAAQEISSLADSLQLEKEVVRVWPCNRRQKEKR [F47P],-0.996 ± 0.27
15,KKRTSIEVSVKGVLETHFLKCPKPAAQEISSLADSLQLEKEVVRVWFCNRRQKKKR [E54K],-0.591 ± 0.46
16,KKRTSIEVSVKGVLETHFLKCPKPAAQEISSLADSLQLEKEVVRVWFCNRRQMEKR [K53M],-0.049 ± 0.29
17,KKRTSIEVSVKGVLETHFLKCPKPAAQEISSLADSLQLEKEVVRVWFCNRRQGEKR [K53G],-0.826 ± 0.2
18,KKRTSIEVSVKGVLETHFLKCPKPAAQEISSLADSLQLEKEVVRVWFCNRRQAEKR [K53A],-0.066 ± 0.13
19,KKRTSIEVSVKGVLETHFLKCPKPAAQEISSLADSLQLEKEVVRVWFCNRRQCEKR [K53C],-0.428 ± 0.35
20,KKRTSIEVSVKGYLETHFLKCPKPAAQEISSLADSLQLEKEVVRVWFCNRRQKEKR [V13Y],-0.354 ± 0.48
21,KKRTSIEVSVKGVLETHFLKCPKPAAQEISSLADSLQLQKEVVRVWFCNRRQKEKR [E39Q],-0.522 ± 0.41
22,KKRTSIEVSVKGVLETHFLKCPKPAAQEISSLADSLQLCKEVVRVWFCNRRQKEKR [E39C],-0.411 ± 0.19
23,KKRTSIEVSVKGVLETHFLKCPKPAAQEISSLADSLQLKKEVVRVWFCNRRQKEKR [E39K],-0.583 ± 0.34
24,KKRTSIEVSVKGVLETHFLKCPKPAAQEISSLADSLQLMKEVVRVWFCNRRQKEKR [E39M],-0.478 ± 0.29

row,Variant,abundance fitness
1,KKRTSIEVSVKGVLETHFLKCPKPAAQEISSLALSLQLEKEVVRVWFCNRRQKEKR [D34L],-0.528 ± 0.13
2,KKRTSIEVSVKGVLETHFLKCPKPAAQEISSLAASLQLEKEVVRVWFCNRRQKEKR [D34A],-0.254 ± 0.13
3,KKRTSIEVSVKGVLETHFLKCPKPAAQEISSLADSLSLEKEVVRVWFCNRRQKEKR [Q37S],-0.081 ± 0.2
4,KKRTSIEVSVKGVLETHFVKCPKPAAQEISSLADSLQLEKEVVRVWFCNRRQKEKR [L19V],-0.437 ± 0.13
5,KKRTSIEVSVKGVLETHFLKCPKPAEQEISSLADSLQLEKEVVRVWFCNRRQKEKR [A26E],0.385 ± 0.15
6,KKRTSIEVSVKGVLETHFLKCPKPASQEISSLADSLQLEKEVVRVWFCNRRQKEKR [A26S],-0.095 ± 0.14
7,KKRTSIEVSVKGVLETHFLKCPKPAAQEISSLADKLQLEKEVVRVWFCNRRQKEKR [S35K],0.257 ± 0.15
8,KKRTSIEVSVKGVLETHFLKCPKPAAQEISSLADDLQLEKEVVRVWFCNRRQKEKR [S35D],0.031 ± 0.25
9,KKRTSIEVSVKGVLETHFLKCPKPAAQEISSLADSLQLEKEVVRVWFCYRRQKEKR [N49Y],-0.752 ± 0.23
10,KKRTSIEVSVKGVLETHFLKCPKPAAQEISSLADSLQLEKEVVRVWFCFRRQKEKR [N49F],-0.574 ± 0.18
11,KKRTSIEVSVKGVLETHFLKCPKPAAQMISSLADSLQLEKEVVRVWFCNRRQKEKR [E28M],-0.355 ± 0.2
12,KKRTSIEVSVKGVLETHFLKCPKPAAQFISSLADSLQLEKEVVRVWFCNRRQKEKR [E28F],-0.732 ± 0.17
13,KKRTSIEVSVKGVLETHFLKCPKPAAQIISSLADSLQLEKEVVRVWFCNRRQKEKR [E28I],-0.47 ± 0.19
14,KKRTSIEVSVKGVLETHFLKCPKPAAQEISSLADSLQTEKEVVRVWFCNRRQKEKR [L38T],-0.607 ± 0.21
15,KKRTSIEVSVKGVLETHFLKCTKPAAQEISSLADSLQLEKEVVRVWFCNRRQKEKR [P22T],-0.796 ± 0.23
16,KKRTSIEVSVKGVLETHFLKCSKPAAQEISSLADSLQLEKEVVRVWFCNRRQKEKR [P22S],-0.427 ± 0.13
17,KKRLSIEVSVKGVLETHFLKCPKPAAQEISSLADSLQLEKEVVRVWFCNRRQKEKR [T4L],-0.021 ± 0.11
18,KKRPSIEVSVKGVLETHFLKCPKPAAQEISSLADSLQLEKEVVRVWFCNRRQKEKR [T4P],-0.178 ± 0.15
19,KKRHSIEVSVKGVLETHFLKCPKPAAQEISSLADSLQLEKEVVRVWFCNRRQKEKR [T4H],-0.925 ± 0.36
20,KKRTSIEVSVKGVLETHYLKCPKPAAQEISSLADSLQLEKEVVRVWFCNRRQKEKR [F18Y],-0.195 ± 0.18
21,KKRTSIEVSVKGVLETLFLKCPKPAAQEISSLADSLQLEKEVVRVWFCNRRQKEKR [H17L],-0.401 ± 0.12
22,KKRTSIEVSVKGVLETYFLKCPKPAAQEISSLADSLQLEKEVVRVWFCNRRQKEKR [H17Y],0.386 ± 0.18
23,KSRTSIEVSVKGVLETHFLKCPKPAAQEISSLADSLQLEKEVVRVWFCNRRQKEKR [K2S],-0.161 ± 0.14
